Experimental data from publication PMC11254670, “Soluble CD72, is a T-cell activator probably via binding to CD6 in homeostasis and autoimmunity” (Frontiers in Immunology, 2024).

Biological target: T1, CD6 (human (endogenous in CD4+ T cells), UniProt P30203 18-668)
T1 sequence (looked up): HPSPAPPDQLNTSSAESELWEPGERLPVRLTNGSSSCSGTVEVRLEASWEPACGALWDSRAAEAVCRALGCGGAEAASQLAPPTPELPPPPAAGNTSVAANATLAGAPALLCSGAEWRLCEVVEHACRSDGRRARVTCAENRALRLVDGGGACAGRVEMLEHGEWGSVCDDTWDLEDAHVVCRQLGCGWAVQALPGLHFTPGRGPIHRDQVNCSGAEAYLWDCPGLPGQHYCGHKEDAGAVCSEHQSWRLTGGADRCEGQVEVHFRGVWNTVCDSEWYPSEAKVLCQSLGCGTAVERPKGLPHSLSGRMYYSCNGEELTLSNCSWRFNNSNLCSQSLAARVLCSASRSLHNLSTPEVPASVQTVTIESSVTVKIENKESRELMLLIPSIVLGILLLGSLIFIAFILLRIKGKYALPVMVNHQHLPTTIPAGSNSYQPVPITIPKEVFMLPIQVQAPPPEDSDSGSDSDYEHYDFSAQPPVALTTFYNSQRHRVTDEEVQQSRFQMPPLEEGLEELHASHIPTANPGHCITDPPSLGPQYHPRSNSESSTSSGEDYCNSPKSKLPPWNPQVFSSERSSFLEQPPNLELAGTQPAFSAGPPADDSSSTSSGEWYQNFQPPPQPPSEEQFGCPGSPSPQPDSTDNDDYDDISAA
Experiment: cell-based or functional assay

- phosphorylation of SLP-76 (Ser376), phospho/total ratio by western blot, activated CD4+ T cells stimulated with 2 ug/ml sCD72 against control: ~2 fold
B1: soluble CD72 (extracellular part of human CD72, amino acids 117-359, V5 and 8xHis tagged) (domain or fragment, UniProt P21854 117-359, looked up)
chain: RYLQVSQQLQQTNRVLEVTNSSLRQQLRLKITQLGQSAEDLQGSRRELAQSQEALQVEQRAHQAAEGQLQACQADRQKTKETLQSEEQQRRALEQKLSNMENRLKPFFTCGSADTCCPSGWIMHQKSCFYISLTSKNWQESQKQCETLSSKLATFSEIYPQSHSYYFLNSLLPNGGSGNSYWTGLSSNKDWKLTDDTQRTRTYAQSSKCNKVHKTWSWWTLESESCRSSLPYICEMTAFRFPD
